Assay results as given in PMC4826039.

Target: bovine brain tubulin (alpha-beta heterodimer), polymerized into taxol-stabilized microtubules (bovine) (UniProt Q6B856)
Experiment: negative stain electron microscopy

| Substance | percent of microtubules with rings [%] |
| --- | --- |
| KLP10A MD K399A (from UniProt Q960Z0 279-615) (domain or fragment) | < 10 |
| KLP10A MD K350A (from UniProt Q960Z0 279-615) (domain or fragment) | < 10 |
